The source of these data is a protein production outcome set (Wang et al. 2014).

The series can be described thus: label from the status in PepcDB records.
In the case of “MEKKLKRRESMSTTAAESPPAKRRRTVTGNENSALIEGLPDHISEICLSLVHRPSLLSAVCTRWRRLLYSPEFPSFPSLYALFVDSTSDTGRVNPSVRFMCFNPVSSKWYPLPPPPPDPPLHRILYRHPSFISFNLPIQCVSAAGKLILIAGSNQQLSPAISHPLIFDPISSSWSSGPRIGSPRRWCATGACDGAIYIASGISSQFSSTVAKSVEKLDLTEQNRNNHRFNWEKLRDMRDLRFSREAIDAVGYRRKLLMVNVKGDAVKEGAIYDVVKDDWEPMPEEMLVGWRGPVAAMEEEILYSVDERRGTVRKYDDEKREWREVVVVEGGEEMLKGATQVTADSGKLCVVTGDGKIVVVDVAAEPAKIWNVEIPDGLEPVSVHVLPRMSQPNFC”, the protein production entry is “failed”.
As to “MEKKYIMFIIAMAISFLTTPIVRKFAKHIKAIDIPKDKRRVHKKPIPKIGGLAIYLAFVLVLVLKKGHLEKAEMGIIFGGGIIVLGGFIDDLKCLRPLYKVLFQLLGAFVLIGFGLRISMVTNPLSNSFSYIHINNFIGIAITIIWIIGVTNAFNLIDGLDGLSAGVGFISSVTIAIVAFLNGPTRSEAEILSVILAGSILGFLPYNFNPASIFMGDTGAQFLGFALAAISIQGAIKSASAVVLAVPILVLGLPIYDTIFAIIRRKINGKPITQADRGHLHHRLLDMGLSQKQAVLIMYFISAIMGLVAVIAMQLTNTKAYVIFAGAVICIVGLAWKFGLFKHK”, the protein production entry is recorded as “failed”.
Then “MEKLGAVLFDDPNLSMNRTMACSTCHMQAAGFSDARESEKVGRDVSLGDDGISLGDRNAPTAAYAKFTPPFGKNAAGEYIGGQFWDGRASLLEDQAGGPPLNPVEMGMPDKAAVVKRLRENPDYVAAFGTQFGKDVFASDESAYAAMTKALASFERSDEFSTFDSKYDRFLRGEEKLTDQEELGRVLISSTQFTNCNTCHEIRGAKGLEDGLFTNHKYFNIGVPANTSVRAVNGSKPDAVDLGLAQNPAVAGDPAQRGKFKVPTLRNVAVTGPYMHNGVFKDLRTVVLFYVKYKSKKPSRQINPETGKTWDAPEVPENIAMTELTSAPALDDKRVDAIVAFLKTLTDRRYEHLLPKEDGQTAAPTAQPVLSVTPKAP”, with “failed”.
As for “MEKLTTLTGVAVPLRRSNVDTDQIIPAVFLKRVKKSGFDDALFYAWRRDPEFVLNKPEYKQGKILVAGPDFGIGSSREHAVWALHDYGFRVVISSRFADIFYGNTAKNGVLAAIMPQESIELLWKLLDEEPGREMTVSLEDRTVTCGDVTLPFEVNDYTRWRLMNGYDDIDLTLQHEDDIIAYEKMRAEKFPFKPKTLPVKREPEQPIESAREGEYPDWQGPLADRGII”, the protein production result was “failed”.
Then “MEKMYNVGKIVNTHGLIGEIRVIATTDFPEERFQVGNTVYLFEKNSKKPEKLIIRSHRKHKNFDLLMFEGLTGIHQVERMKEGVLKIKEAQLTDLEENEFYFHEIIGTVVTTDGEELGEITEILTPGANDVWVVKGADKKEKLIPYIADVVKDINTNDKKITIEVMEGLLDLEHHHHHH”, with “failed”.
Next, “MEKNFILSVGMSVMFLFISSIKTVQAQQLGIGVKTELNGKVRFCNYDEAYFMPDTNTRIKVTGLEIAYDSSLNYYDIFVNVKGDKVNLHIKYSNGGEGAYIYKGIDRISKMDVVVTTKKKLSLYANNYGVNSYKEVESSVGIIIVFPKTYMISSIVPIKNKVETVNELSTQLRKGVITDSDGYTNIRKSNSVNSEIIGKIVDREVFTYWETNDNWYIVQTAKGIKGYVHKSRIKPVEERNEQKIRYYKVKNGDKIQDIAEKLGVSIDTICKLNRVKITTVLREGQALRISR”: “failed”.
Then “MEKNQSDDDGTALIFLGTGCSGAVPDFRCLLQPSDPPCHVCSQSLSLLPHLNPNYRCNTSLLIDYCSKEEDGRHKYILIDVGKSFREQIILTHEHADAVHGLDEIRSLQPRGATIVDTDPLPVFLSQFTMESIATRFPYLVEKKVKEVPRRVSLLDWKNIEENCDEPFAASGLSFTPLPVMHGEDYIALGFLFGDKSKVAYISDVSRIPPSTEYAISKAGAGQLDLLILDTNIPWKRGPHPTHICFTEALEILKRLCPKRALLTGMTHEFDHHEYNEILAEWSLRDYVDF”, with “failed”.
As for “MEKPDINVAEAWEQYWNKTLVNATPVLWDANVERAVVVDLPRFQSFFDTELPLIDFACGNGTQTKFLSQFFPRVIGFDVSKTALEMASKENTAANISYRLLDGLVPEQAAQIHSEIGDANIYMRTGFHHIPVEKRELLAQSLRTLLGKQGVMYLIELGTGCIEFFNSLLEKYGKLPYELSLVMEHGIRPGIFTTEDIELYFPDFEILSQGESLFQSIHKLPDGNYATPPAFWAVIKRHLEHHHHHH”, the protein production result is “not failed”.
